How the values were obtained:
[1] = target: SpyCatcher-AP205 capsid virus-like particle (cVLP) (Acinetobacter phage AP205); assay: covalent SpyTag-SpyCatcher coupling, SDS-PAGE densitometry; SpyTagged sE2 mixed with SpyCatcher-AP205 cVLP at molar ratio 2:1 (antigen per cVLP binding site), 36 h at 4 °C; Coomassie SDS-PAGE, densitometry (ImageQuantTL)
[2] = target: oligomeric soluble HCV E2 (sE2, Con1 isolate, genotype 1b) with C-terminal 6x His tag and SpyTag, SEC peak 2 (Hepatitis C virus, isolate Con1 (genotype 1b)) (UniProt Q9WMX2); assay: SEC; analytical SEC of the purified sE2 SEC peak fractions against marker proteins of known size
[3] = target: oligomeric soluble HCV E2 (sE2, Con1 isolate, genotype 1b) with C-terminal 6x His tag and SpyTag, SEC peak 2 (Hepatitis C virus, isolate Con1 (genotype 1b)) (UniProt Q9WMX2); assay: non-reducing SDS-PAGE; SEC peaks of sE2 in SDS-PAGE, Coomassie staining, with or without reducing agent (DTT)

Row | Substance | coupling efficiency [1] [%] | stoichiometry N [2] | stoichiometry N [3]
1 | monomeric soluble HCV E2 (sE2, Con1 isolate, genotype 1b) with C-terminal 6x His tag and SpyTag, SEC peak 1 (from UniProt Q9WMX2 384-661) (domain or fragment) | 60 | – | –
2 | oligomeric soluble HCV E2 (sE2, Con1 isolate, genotype 1b) with C-terminal 6x His tag and SpyTag, SEC peak 2 (from UniProt Q9WMX2 384-661) (domain or fragment) | 60 | 4 | 2

From article PMC9665036
